Test results reported in paper PMC9618391 (2022).

B1: wild-type human sodium/iodide symporter (hNIS) [human] / μ1B (AP1M2) expressed from cDNA in COS-7 cells [not stated] (parent complex)
chain 1: MEAVETGERPTFGAWDYGVFALMLLVSTGIGLWVGLARGGQRSAEDFFTGGRRLAALPVGLSLSASFMSAVQVLGVPSEAYRYGLKFLWMCLGQLLNSVLTALLFMPVFYRLGLTSTYEYLEMRFSRAVRLCGTLQYIVATMLYTGIVIYAPALILNQVTGLDIWASLLSTGIICTFYTAVGGMKAVVWTDVFQVVVMLSGFWVVLARGVMLVGGPRQVLTLAQNHSRINLMDFNPDPRSRYTFWTFVVGGTLVWLSMYGVNQAQVQRYVACRTEKQAKLALLINQVGLFLIVSSAACCGIVMFVFYTDCDPLLLGRISAPDQYMPLLVLDIFEDLPGVPGLFLACAYSGTLSTASTSINAMAAVTVEDLIKPRLRSLAPRKLVIISKGLSLIYGSACLTVAALSSLLGGGVLQGSFTVMGVISGPLLGAFILGMFLPACNTPGVLAGLGAGLALSLWVALGATLYPPSEQTMRVLPSSAARCVALSVNASGLLDPALLPANDSSRAPSSGMDASRPALADSFYAISYLYYGALGTLTTVLCGALISCLTGPTKRSTLAPGLLWWDLARQTASVAPKEEVAILDDNLVKGPEELPTGNKKPPGFLPTNEDRLFFLGQKELEGAGSWTPCVGHDGGRDQQETNL
chain 2: MSASAVFILDVKGKPLISRNYKGDVAMSKIEHFMPLLVQREEEGALAPLLSHGQVHFLWIKHSNLYLVATTSKNANASLVYSFLYKTIEVFCEYFKELEEESIRDNFVIVYELLDELMDFGFPQTTDSKILQEYITQQSNKLETGKSRVPPTVTNAVSWRSEGIKYKKNEVFIDVIESVNLLVNANGSVLLSEIVGTIKLKVFLSGMPELRLGLNDRVLFELTGRSKNKSVELEDVKFHQCVRLSRFDNDRTISFIPPDGDFELMSYRLSTQVKPLIWIESVIEKFSHSRVEIMVKAKGQFKKQSVANGVEISVPVPSDADSPRFKTSVGSAKYVPERNVVIWSIKSFPGGKEYLMRAHFGLPSVEKEEVEGRPPIGVKFEIPYFTVSGIQVRYMKIIEKSGYQALPWVRYITQSGDYQLRTS

Variants of: B1
Assay: co-immunoprecipitation with Western blot quantification; COS-7 cells cotransfected with hNIS and μ1B; IP α-μ1B, WB α-hNIS; parent: 100; read off a plot
For chain 1 L594A, the percent of parent was ~84 % Relative to hNIS WT. For chain 1 Y118A, the percent of parent was ~61 % Relative to hNIS WT. For chain 1 Y120A, the percent of parent was ~83 % Relative to hNIS WT. For chain 1 L562A, chain 1 L563A, the percent of parent was ~32 % Relative to hNIS WT. chain 1 L583A was tested, and the percent of parent was ~5 % Relative to hNIS WT. In the case of chain 1 L121A, the percent of parent is reported as ~60 % Relative to hNIS WT. With chain 1 L587A the percent of parent was ~100 % Relative to hNIS WT.
